# Source: patent publication US8476407B2, “Metallopeptide catalysts” (William Marsh Rice University, priority 2009, dated 2013)
# Marks after values point to notes of the source that are not given here. Residues, ends and D or L forms follow the SMILES beside them. No end group written: not given here.
# Columns and labels:
# K3a,eRh2 = assay: Covalent modification of E3gX peptides with diazo reagent 1 catalysed by K3a,eRh2; format: biochemical; conditions: for modification of variable residue (in words): metallopeptide catalyst K3a,eRh2 and diazo reagent 1; for krel, relative modification rate: initial rate of product formation at 1 hour, corrected for catalyst concentration
# Method: Binding the dirhodium center at positions a and e ensures that the metal will be held proximal to the coil-coil interface, and the a, e spacing serves to stabilize the necessary helical structure.
# Covalent modification of variable residue g was then examined.
# Relative modification rates (krel) were based on conversion at 1 hour, which corrects for catalyst loading and assumes first-order catalysis.
# [1] = Circular dichroism (CD) helicity of peptides and dirhodium adducts; format: physicochemical; conditions: for [θ]220, residual molar ellipticity: CD at 220 nm, water; for effect of dirhodium binding on helicity (in words): CD spectroscopy; for fH, helicity content: calculated from [θ]220, fH = ([θ]220 − [θ]c)/([θ]inf − [θ]c); for Rel. Hel %, relative helicity: calculated with [θ]inf = [θ]220 of EE4-Rh2(OAc)2; for fH (TFE), helicity content: calculated with [θ]inf = [θ]220 of EE4 in 100% TFE
# Method: Peptides were prepared having 18 amino acids and a propensity toward helicity due to an alanine-rich sequence (Table 1). A complete turn of an α-helix requires about three or four amino acids, so carboxylate side chains (Asp, Glu) were placed in an i, i+3 or an i, i+4 relationship.
# The peptides reacted with cis-Rh2(OAc)2(TFA)2, producing adducts with bridging dirhodium centers for both i, i+3 and i, i+4 carboxylate spacing. Circular dichroism (CD) spectroscopy assessed the effect of dirhodium binding on helicity.
# bZip domain of c-Fos = target: T1, bZip domain of c-Fos (Homo sapiens, UniProt P01100, A167K/D174T/K188A/T181D); assay: Covalent modification of c-Fos with diazo reagent 1 catalysed by metallopeptide; format: biochemical; conditions: for conversion of c-Fos: 45 h, metallopeptide and diazo 1 added in small portions; for c-Fos residue modified: MS/MS fragmentation analysis
# T1 sequence (P01100 162-193 A167K/D174T/T181D/K188A limits assumed): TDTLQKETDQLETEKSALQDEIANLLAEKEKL
# Method: FIG. 5. MALDI-TOF MS spectra of c-Fos (SEQ ID NO: 15) modification catalyzed by Jun(Rh2) (A) (SEQ ID NO: 14) and Max(Rh2) (B)(SEQ ID NO: 16). Reactions were 100 μM in substrate at pH 6.5. Metallopeptide and diazo 1 were added portion-wise to final concentrations of 200 μM and 5 mM, respectively. Sequences illustrate the expected alignment of the coiled coils and the site of modification (B) In the inset table, the ratio in parentheses indicates the ratio of singly to doubly modified product.
# Metallopeptide Jun(Rh2) was prepared based on an affinity-optimized c-Jun variant with glutamate residues in g and […] positions. The target was the bZip domain of c-Fos, an oncogene product that regulates transcription by forming a heterodimeric coiled coil with c-Jun.
# (§1) Purified Jun variant was metalated with Rh2(OAc)2(tfa)2 in aqueous buffer. […] In initial studies at 4° C., crude Jun(Rh2) directly from the metalation process could be used in modification reactions with activity identical to that of purified material, thus avoiding time-consuming and unnecessary material loss that accompanied isolation.
# Catalytic activity was also investigated for a second metallopeptide based on the leucine-zipper Max.
# For Jun(Rh2), MALDI-TOF MS/MS analysis established that Gln19 (position e) was modified. […] In the case of Max(Rh2), the dominant fragmentation pathway was cleavage of the modifying group.
# Fos = target: T2, Fos (Homo sapiens, UniProt P01100, A167K/D174T/K188A/T181D); assay: Temperature-dependent folding of Fos-metallopeptide coiled coil; format: physicochemical; conditions: Fos-Max(Rh2) temperature-dependent folding
# T2 sequence (P01100 162-193 A167K/D174T/T181D/K188A limits assumed): T1 sequence (P01100 162-193 A167K/D174T/T181D/K188A limits assumed)
# Method: Amazingly, site-specific reactivity can be templated on molecular recognition in interactions with such low affinities that they are uncharacterizable by available methods. Because metallopeptide Jun(Rh2) has ≧100 μM affinity for Fos, reactions at 10 μM successful even though the desired Fos-Jun(Rh2) dimer is not the major species.
# Solubility on isolation = format: physicochemical; conditions: isolation after metalation in aqueous buffer
# Method: as §1
# [2] = 20 mol % K3a,eRh2, 10 mM diazo 1 added in two portions, 50 μM substrate, pH 6.2
# [3] = 50 mol % K3a,eRh2, 10 mM diazo 1 added in two portions, 50 μM substrate, pH 6.2
compound,measurement,setting,value
C[C@@H](O)[C@H](N)C(=O)O [Thr],modification of variable residue (in words),"K3a,eRh2",not observed
Ac-YGKAAAADAAADKAAAAK-NH2 [DD4],"[θ]220, residual molar ellipticity",[1],-5700 deg cm^2 dmol-res^-1
same,effect of dirhodium binding on helicity (in words),[1],increased helicity
same,"fH, helicity content",[1],22
same,"Rel. Hel %, relative helicity",[1],41%
same,"fH (TFE), helicity content",[1],25
Ac-YGKAAAADAGADKAAAAK-NH2 [DD4G],"[θ]220, residual molar ellipticity",[1],-1100 deg cm^2 dmol-res^-1
same,"fH, helicity content",[1],9
same,"Rel. Hel %, relative helicity",[1],17%
same,"fH (TFE), helicity content",[1],11
N[C@@H](CCC(=O)O)C(=O)O [Glu],% conv. at 24 h,"K3a,eRh2; [2]",76%
same,"krel, relative modification rate","K3a,eRh2",130
N[C@@H](CC(=O)O)C(=O)O [Asp],% conv. at 24 h,"K3a,eRh2; [2]",53%
same,"krel, relative modification rate","K3a,eRh2",100
same,modification of variable residue (in words),"K3a,eRh2",modest conversion
NC(=O)CC[C@H](N)C(=O)O [Gln],% conv.,"K3a,eRh2; 10 mol % K3a,eRh2, reaction time 6 hours, 2.5 mM diazo 1, 50 μM substrate, pH 6.2",> 95%
same,"krel, relative modification rate","K3a,eRh2",260
Ac-YGKAAAAEAGAEKAAAAK-NH2 [EE4G],"[θ]220, residual molar ellipticity",[1],-1900 deg cm^2 dmol-res^-1
same,"fH, helicity content",[1],12
same,"Rel. Hel %, relative helicity",[1],21%
same,"fH (TFE), helicity content",[1],13
Ac-YGKAAAAEAGEAKAAAAK-NH2 [EE3G],"[θ]220, residual molar ellipticity",[1],-2500 deg cm^2 dmol-res^-1
same,effect of dirhodium binding on helicity (in words),[1],becomes helical
same,"fH, helicity content",[1],13
same,"Rel. Hel %, relative helicity",[1],24%
same,"fH (TFE), helicity content",[1],15
Ac-YGKAAAAEAAAEKAAAAK-NH2 [EE4],"[θ]220, residual molar ellipticity",[1],-12300 deg cm^2 dmol-res^-1
same,effect of dirhodium binding on helicity (in words),[1],increased helicity
same,"fH, helicity content",[1],41
same,"Rel. Hel %, relative helicity",[1],75%
same,"fH (TFE), helicity content",[1],46
Ac-YGKAAAAEAADAKAAAAK-NH2 [ED3],"[θ]220, residual molar ellipticity",[1],-11400 deg cm^2 dmol-res^-1
same,effect of dirhodium binding on helicity (in words),[1],completely disrupt helicity
same,"fH, helicity content",[1],38
same,"Rel. Hel %, relative helicity",[1],70%
same,"fH (TFE), helicity content",[1],43
N=C(N)NCCC[C@H](N)C(=O)O [Arg],% conv. at 24 h,"K3a,eRh2; [3]",73%
same,"krel, relative modification rate","K3a,eRh2",100
Ac-KAEAAAEAK-NH2 [sEE4],"[θ]220, residual molar ellipticity",[1],-400 deg cm^2 dmol-res^-1
same,"fH, helicity content",[1],9
same,"Rel. Hel %, relative helicity",[1],13%
same,"fH (TFE), helicity content",[1],8
N[C@@H](CS)C(=O)O [Cys],% conv. at 24 h,"K3a,eRh2; 10 mol % K3a,eRh2, 2.5 mM diazo 1, 50 μM substrate, pH 6.2, room temperature",78%
same,"krel, relative modification rate","K3a,eRh2",560
Ac-YGKAAAADAADAKAAAAK-NH2 [DD3],"[θ]220, residual molar ellipticity",[1],-5300 deg cm^2 dmol-res^-1
same,effect of dirhodium binding on helicity (in words),[1],completely disrupt helicity
same,"fH, helicity content",[1],21
same,"Rel. Hel %, relative helicity",[1],39%
same,"fH (TFE), helicity content",[1],24
NCCCC[C@H](N)C(=O)O [Lys],% conv. at 24 h,"K3a,eRh2; [3]",8^g %
same,"krel, relative modification rate","K3a,eRh2",20
same,modification of variable residue (in words),"K3a,eRh2",modest conversion
Ac-YGKAAAADAAEAKAAAAK-NH2 [DE3],"[θ]220, residual molar ellipticity",[1],-8000 deg cm^2 dmol-res^-1
same,effect of dirhodium binding on helicity (in words),[1],completely disrupt helicity
same,"fH, helicity content",[1],29
same,"Rel. Hel %, relative helicity",[1],52%
same,"fH (TFE), helicity content",[1],32
Ac-YGKAAAAEAAEAKAAAAK-NH2 [EE3],"[θ]220, residual molar ellipticity",[1],-11500 deg cm^2 dmol-res^-1
same,effect of dirhodium binding on helicity (in words),[1],increased helical
same,"fH, helicity content",[1],39
same,"Rel. Hel %, relative helicity",[1],70%
same,"fH (TFE), helicity content",[1],44
Max(Rh2): dirhodium metallopeptide based on the leucine-zipper Max (SEQ ID NO: 16) (ARRKNFTFQQNINNLKRQEALLEQQVRAL; also: dirhodium metal complex),conversion of c-Fos,bZip domain of c-Fos; 4° C.,72%
same,c-Fos residue modified,bZip domain of c-Fos,both Glu14 and Glu21
same,conversion of c-Fos,bZip domain of c-Fos; −15° C.,83%
same,TM,Fos,20 °C
N[C@@H](Cc1c[nH]cn1)C(=O)O [His],% conv. at 24 h,"K3a,eRh2; [3]",17^g %
same,"krel, relative modification rate","K3a,eRh2",20
same,modification of variable residue (in words),"K3a,eRh2",modest conversion
CC[C@H](C)[C@H](NC(=O)[C@H](CCC(N)=O)NC(=O)[C@H](CCC(N)=O)NC(=O)[C@H](CCCNC(=N)N)NC(=O)[C@H](CC(C)C)NC(=O)[C@H](CO)NC(=O)[C@H](CC(N)=O)NC(=O)[C@H](C)NC(=O)[C@@H](NC(=O)[C@H](CO)NC(=O)[C@H](C)NC(=O)[C@H](CCC(=O)O)NC(=O)[C@H](CO)NC(=O)[C@H](CO)NC(=O)[C@@H](NC(=O)[C@H](CCC(=O)O)NC(=O)[C@H](C)NC(=O)[C@H](CCCCN)NC(=O)[C@H](CC(C)C)NC(=O)[C@@H](NC(=O)[C@H](CCCCN)NC(=O)[C@@H](NC(=O)[C@H](CCCNC(=N)N)NC(=O)[C@H](CCC(N)=O)NC(=O)[C@H](CCC(N)=O)NC(=O)[C@H](CC(C)C)NC(=O)[C@H](CCC(N)=O)NC(=O)[C@H](C)NC(=O)[C@H](C)NC(C)=O)C(C)C)[C@@H](C)O)[C@@H](C)CC)[C@@H](C)O)C(=O)N[C@@H](C)C(=O)N[C@@H](CCC(N)=O)C(=O)N[C@@H](CC(C)C)C(N)=O [Jun(Rh2)] (Ac-AAQLQQRVKTLKAEISSEASTANSLRQQIAQL-NH2; N-terminus and C-terminus assumed),c-Fos residue modified,bZip domain of c-Fos,Gln19
same,solubility,Solubility on isolation,poor solubility
Ac-YGKAAAAEAGADKAAAAK-NH2 [ED4G],"[θ]220, residual molar ellipticity",[1],-1100 deg cm^2 dmol-res^-1
same,"fH, helicity content",[1],9
same,"Rel. Hel %, relative helicity",[1],17%
same,"fH (TFE), helicity content",[1],10
